Biological target: the molecule itself
Experiment: light scattering at 340 nm

B1: ^ΔCFtsH (T. maritima FtsH variant devoid of the N-terminal TM domain (residues 1–146) and of Cys residues) (domain or fragment, UniProt Q9WZ49 147-610, looked up)
chain: ATMYKPSGNKRVTFKDVGGAEEAIEELKEVVEFLKDPSKFNRIGARMPKGILLVGPPGTGKTLLARAVAGEANVPFFHISGSDFVELFVGVGAARVRDLFAQAKAHAPSIVFIDEIDAVGRHRGAGLGGGHDEREQTLNQLLVEMDGFDSKEGIIVMAATNRPDILDPALLRPGRFDKKIVVDPPDMLGRKKILEIHTRNKPLAEDVNLEIIAKRTPGFVGADLENLVNEAALLAAREGRDKITMKDFEEAIDRVIAGPARKSKLISPKEKRIIAYHEAGHAVVSTVVPNGEPVHRISIIPRGYKALGYTLHLPEEDKYLVSRNELLDKLTALLGGRAAEEVVFGDVTSGAANDIERATEIARNMVSQLGMSEELGPLAWGKEEQEVFLGKEITRLRNYSEEVASKIDEEVKKIVTNSYERAKEIIRKYRKQLDNIVEILLEKETIEGDELRRILSEEFEKVVE
- koff: ≥ 1.6 s⁻¹
